Measurements taken from paper PMC6555819, “Comprehensive study of nuclear receptor DNA binding provides a revised framework for understanding receptor specificity”.
Positions count from the first letter of the chain named.

B1: NRC3_random_hg19_332_o1 (dsDNA)
DNA 1: GCTTGTCCTCAGCCTCCTGAGCAGCTGGGACTATAGGCGATTGACAGCGTAGAATGAAGG
DNA 2: CCTTCATTCTACGCTGTCAATCGCCTATAGTCCCAGCTGCTCAGGAGGCTGAGGACAAGC
B2: NRC3_wobSeed109_DR4_A19G_o1 (dsDNA)
DNA 1: GCCGTCCAAGGTCATAGGGGGTCAGTGAAGACAGATGCGATTGACAGCGTAGAATGAAGG
DNA 2: CCTTCATTCTACGCTGTCAATCGCATCTGTCTTCACTGACCCCCTATGACCTTGGACGGC
B3: NRC3_random_hg19_83_o1 (dsDNA)
DNA 1: GCGCTGTACATGATGTGGCCTCCCAGCCCAGGATCTGCGATTGACAGCGTAGAATGAAGG
DNA 2: CCTTCATTCTACGCTGTCAATCGCAGATCCTGGGCTGGGAGGCCACATCATGTACAGCGC
B4: NRC3_random_hg19_480_o1 (dsDNA)
DNA 1: GCGAGAATGGTCAGTACATTCAACCATGAATTCAAGGCGATTGACAGCGTAGAATGAAGG
DNA 2: CCTTCATTCTACGCTGTCAATCGCCTTGAATTCATGGTTGAATGTACTGACCATTCTCGC
B5: NRC3_wobSeed27_DR1_G24A_o1 (dsDNA)
DNA 1: GCACTCGGAGGACAAAGGTCAGAACTACGCCAGTGAGCGATTGACAGCGTAGAATGAAGG
DNA 2: CCTTCATTCTACGCTGTCAATCGCTCACTGGCGTAGTTCTGACCTTTGTCCTCCGAGTGC
B6: NRC3_random_hg19_183_o1 (dsDNA)
DNA 1: GCGAGGACAGAGTAGATCAACCTTTCCTACCTCTAAGCGATTGACAGCGTAGAATGAAGG
DNA 2: CCTTCATTCTACGCTGTCAATCGCTTAGAGGTAGGAAAGGTTGATCTACTCTGTCCTCGC
B7: NRC3_wobSeed86_DR3_o1 (dsDNA)
DNA 1: GCGCTGCTAGGTCAGGTTGGTCAGCTAACGGGTACGGCGATTGACAGCGTAGAATGAAGG
DNA 2: CCTTCATTCTACGCTGTCAATCGCCGTACCCGTTAGCTGACCAACCTGACCTAGCAGCGC
B8: NRC3_random_hg19_373_o1 (dsDNA)
DNA 1: GCTGCCACAGAGGATACTGTGACGTTATGCATCACTGCGATTGACAGCGTAGAATGAAGG
DNA 2: CCTTCATTCTACGCTGTCAATCGCAGTGATGCATAACGTCACAGTATCCTCTGTGGCAGC
B9: NRC3_wobSeed100_DR4_T22G_o1 (dsDNA)
DNA 1: GCCCTACTGGGCCACGAAAGGGCATTGATTCAGTGAGCGATTGACAGCGTAGAATGAAGG
DNA 2: CCTTCATTCTACGCTGTCAATCGCTCACTGAATCAATGCCCTTTCGTGGCCCAGTAGGGC
B10: NRC3_random_hg19_263_o1 (dsDNA)
DNA 1: GCGCTGGGTAGATCTGCCACTGAAGCCTACATGGAGGCGATTGACAGCGTAGAATGAAGG
DNA 2: CCTTCATTCTACGCTGTCAATCGCCTCCATGTAGGCTTCAGTGGCAGATCTACCCAGCGC
B11: NRC3_wobSeed113_DR4_G19A_o1 (dsDNA)
DNA 1: GCATATGTAGGTTAGCTGAGGTCATTCAGACTAGGCGCGATTGACAGCGTAGAATGAAGG
DNA 2: CCTTCATTCTACGCTGTCAATCGCGCCTAGTCTGAATGACCTCAGCTAACCTACATATGC
B12: NRC3_wobSeed136_DR5_G5C_o1 (dsDNA)
DNA 1: GCTACCCTAGGTCATTCAGGGGCCAGTATAGAAAGCGCGATTGACAGCGTAGAATGAAGG
DNA 2: CCTTCATTCTACGCTGTCAATCGCGCTTTCTATACTGGCCCCTGAATGACCTAGGGTAGC
B13: NRC3_wobSeed117_DR4_A18G_o1 (dsDNA)
DNA 1: GCCGTCAAAGTTCAACTGAGGTAACGTAAAGCACGCGCGATTGACAGCGTAGAATGAAGG
DNA 2: CCTTCATTCTACGCTGTCAATCGCGCGTGCTTTACGTTACCTCAGTTGAACTTTGACGGC
B14: NRC3_wobSeed45_DR1_G4A_o1 (dsDNA)
DNA 1: GCTATCAAAGTTCAAAGGTAACGTAAGTATCCACACGCGATTGACAGCGTAGAATGAAGG
DNA 2: CCTTCATTCTACGCTGTCAATCGCGTGTGGATACTTACGTTACCTTTGAACTTTGATAGC
B15: NRC3_wobSeed114_DR4_G9A_o1 (dsDNA)
DNA 1: GCAATACAAGGTCATCGTAGGCCAGAGTACGCACAGGCGATTGACAGCGTAGAATGAAGG
DNA 2: CCTTCATTCTACGCTGTCAATCGCCTGTGCGTACTCTGGCCTACGATGACCTTGTATTGC
B16: NRC3_wobSeed104_DR4_A11G_o1 (dsDNA)
DNA 1: GCTCTTGTAGGTCAATAGAGGTTAAGAAAGTGCGCTGCGATTGACAGCGTAGAATGAAGG
DNA 2: CCTTCATTCTACGCTGTCAATCGCAGCGCACTTTCTTAACCTCTATTGACCTACAAGAGC
B17: NRC3_wobSeed97_DR4_G16A_o1 (dsDNA)
DNA 1: GCCAAACTAGGTCACAAAAGGTCAAAGTCGAATGACGCGATTGACAGCGTAGAATGAAGG
DNA 2: CCTTCATTCTACGCTGTCAATCGCGTCATTCGACTTTGACCTTTTGTGACCTAGTTTGGC
B18: NRC3_wobSeed105_DR4_A13T_o1 (dsDNA)
DNA 1: GCATCTCTAGGTTAAGATAGTTCAGTGAATGCAAATGCGATTGACAGCGTAGAATGAAGG
DNA 2: CCTTCATTCTACGCTGTCAATCGCATTTGCATTCACTGAACTATCTTAACCTAGAGATGC
B19: NRC3_wobSeed64_DR2_G5C_o1 (dsDNA)
DNA 1: GCTACCCTAGGTCATTGGGCCAGTATAGTACGCATCGCGATTGACAGCGTAGAATGAAGG
DNA 2: CCTTCATTCTACGCTGTCAATCGCGATGCGTACTATACTGGCCCAATGACCTAGGGTAGC
B20: NRC3_wobSeed49_DR2_G11T_o1 (dsDNA)
DNA 1: GCCAAACTAGTTCAAGAGGTCAAAGTCCGCTTCCCGGCGATTGACAGCGTAGAATGAAGG
DNA 2: CCTTCATTCTACGCTGTCAATCGCCGGGAAGCGGACTTTGACCTCTTGAACTAGTTTGGC
B21: NRC3_wobSeed101_DR4_G27T_o1 (dsDNA)
DNA 1: GCCCTTACGGGTCACTCCAGGTTATATCATCGGAGTGCGATTGACAGCGTAGAATGAAGG
DNA 2: CCTTCATTCTACGCTGTCAATCGCACTCCGATGATATAACCTGGAGTGACCCGTAAGGGC
B22: NRC3_wobSeed100_DR4_T8G_o1 (dsDNA)
DNA 1: B9 DNA 1 with T8G, G22T
DNA 2: B9 DNA 2 with C39A, A53C
B23: NRC3_wobSeed100_DR4_G16T_o1 (dsDNA)
DNA 1: B9 DNA 1 with G16T, G22T
DNA 2: B9 DNA 2 with C39A, C45A
B24: NRC3_wobSeed73_DR3_A5C_o1 (dsDNA)
DNA 1: GCCACACTAGGTCACAGAGGTCAAAGTCCGTGCGTAGCGATTGACAGCGTAGAATGAAGG
DNA 2: CCTTCATTCTACGCTGTCAATCGCTACGCACGGACTTTGACCTCTGTGACCTAGTGTGGC
B25: NRC3_wobSeed116_DR4_C16T_o1 (dsDNA)
DNA 1: GCAGAATGAGGTTACTAAAGATCAGGGAAACGCTTGGCGATTGACAGCGTAGAATGAAGG
DNA 2: CCTTCATTCTACGCTGTCAATCGCCAAGCGTTTCCCTGATCTTTAGTAACCTCATTCTGC
B26: NRC3_wobSeed116_DR4_A9G_o1 (dsDNA)
DNA 1: B25 DNA 1 with A9G, T16C
DNA 2: B25 DNA 2 with A45G, T52C
B27: NRC3_wobSeed42_DR1_G9A_o1 (dsDNA)
DNA 1: GCTATACAAGGTCAAAGGCCAGAGTACGAATGTCGAGCGATTGACAGCGTAGAATGAAGG
DNA 2: CCTTCATTCTACGCTGTCAATCGCTCGACATTCGTACTCTGGCCTTTGACCTTGTATAGC

Biological target: FXR:RXRa (Homo sapiens, UniProt Q96RI1;P19793 full;full)
Assay: no ligand; PBM; 270 nM : 90 nM RXRa; PBS pH 7.4, 2% milk, 0.02% Triton X-100, 1 mM DTT, BSA, 0.4 mg/ml salmon testes DNA
Conditions: tags: His kept;His cleaved; copies: 1;1; label: surface-attached array probe
Method in brief: (§1)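 Binding buffer was PBS pH 7.4 with 2% milk, 0.02% Triton X-100, 1 mM DTT, 0.2 mg/mL BSA and 0.4 mg/ml salmon testes DNA. In it, ligand-free nuclear receptor dimers were incubated 1 h on custom Agilent 4×180K protein-binding microarrays carrying double-stranded probes. Antibodies against each partner (one per run) detected binding, and z-scores were calculated against random background probes after regression normalization of scanned fluorescence.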

FXR:RXRa, sequence (Q96RI1 whole entry, chain 1 of 2): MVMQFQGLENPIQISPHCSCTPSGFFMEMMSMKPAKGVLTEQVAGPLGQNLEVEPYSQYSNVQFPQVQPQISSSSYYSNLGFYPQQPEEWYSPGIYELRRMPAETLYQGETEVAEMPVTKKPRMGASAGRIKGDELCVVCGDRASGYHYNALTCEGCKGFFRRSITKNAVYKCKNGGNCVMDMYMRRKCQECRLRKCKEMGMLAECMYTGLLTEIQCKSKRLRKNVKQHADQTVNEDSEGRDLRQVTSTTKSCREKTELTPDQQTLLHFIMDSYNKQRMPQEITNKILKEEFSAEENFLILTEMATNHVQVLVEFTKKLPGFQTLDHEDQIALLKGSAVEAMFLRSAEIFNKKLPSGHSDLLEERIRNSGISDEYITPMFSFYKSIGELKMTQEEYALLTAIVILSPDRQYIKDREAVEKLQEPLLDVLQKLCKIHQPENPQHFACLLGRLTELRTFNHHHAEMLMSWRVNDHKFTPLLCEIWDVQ
FXR:RXRa, sequence (P19793 whole entry, chain 2 of 2): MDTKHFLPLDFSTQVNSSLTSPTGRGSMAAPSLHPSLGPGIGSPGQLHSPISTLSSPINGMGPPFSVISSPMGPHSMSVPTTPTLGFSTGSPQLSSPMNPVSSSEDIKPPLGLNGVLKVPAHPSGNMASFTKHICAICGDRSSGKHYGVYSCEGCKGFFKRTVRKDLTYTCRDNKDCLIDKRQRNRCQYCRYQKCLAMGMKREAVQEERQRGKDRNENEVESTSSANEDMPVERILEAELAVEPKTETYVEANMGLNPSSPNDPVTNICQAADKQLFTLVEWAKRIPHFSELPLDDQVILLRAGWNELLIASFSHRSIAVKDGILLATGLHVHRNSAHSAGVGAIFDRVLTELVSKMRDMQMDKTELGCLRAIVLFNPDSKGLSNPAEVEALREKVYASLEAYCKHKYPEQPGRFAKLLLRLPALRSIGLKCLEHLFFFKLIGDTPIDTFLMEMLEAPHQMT

Binder	binding signal
B1	-0.13 PBM z-score against 500 random probes
B2	8.21 PBM z-score against 500 random probes

Biological target: RARg:RXRa (Homo sapiens, UniProt P13631;P19793 full;full)
Assay: as above
Conditions: tags: His kept;His cleaved; copies: 1;1; label: surface-attached array probe
Method in brief: as §1

RARg:RXRa, sequence (P13631 whole entry, chain 1 of 2): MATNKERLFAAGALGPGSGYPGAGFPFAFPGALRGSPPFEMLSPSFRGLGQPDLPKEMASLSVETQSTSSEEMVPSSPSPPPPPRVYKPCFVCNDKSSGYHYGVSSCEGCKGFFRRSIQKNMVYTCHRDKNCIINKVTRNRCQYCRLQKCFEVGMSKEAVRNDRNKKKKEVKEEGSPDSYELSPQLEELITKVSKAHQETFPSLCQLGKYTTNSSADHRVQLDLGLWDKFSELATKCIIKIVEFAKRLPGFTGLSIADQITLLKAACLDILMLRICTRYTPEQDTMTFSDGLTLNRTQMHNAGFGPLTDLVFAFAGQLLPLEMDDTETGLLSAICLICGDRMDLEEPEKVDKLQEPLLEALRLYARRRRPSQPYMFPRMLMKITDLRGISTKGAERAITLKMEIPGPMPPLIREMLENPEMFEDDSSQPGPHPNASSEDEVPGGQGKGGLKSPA
RARg:RXRa, sequence (P19793 whole entry, chain 2 of 2): as the sequence (P19793 whole entry, chain 2 of 2) above

Binder	binding signal
B2	7.6 PBM z-score against 500 random probes

Biological target: PPARa:RXRa (Homo sapiens, UniProt Q07869;P19793 full;full)
Assay: as above
Conditions: tags: GST kept;His cleaved; copies: 1;1; label: surface-attached array probe
Method in brief: as §1

PPARa:RXRa, sequence (Q07869 whole entry, chain 1 of 2): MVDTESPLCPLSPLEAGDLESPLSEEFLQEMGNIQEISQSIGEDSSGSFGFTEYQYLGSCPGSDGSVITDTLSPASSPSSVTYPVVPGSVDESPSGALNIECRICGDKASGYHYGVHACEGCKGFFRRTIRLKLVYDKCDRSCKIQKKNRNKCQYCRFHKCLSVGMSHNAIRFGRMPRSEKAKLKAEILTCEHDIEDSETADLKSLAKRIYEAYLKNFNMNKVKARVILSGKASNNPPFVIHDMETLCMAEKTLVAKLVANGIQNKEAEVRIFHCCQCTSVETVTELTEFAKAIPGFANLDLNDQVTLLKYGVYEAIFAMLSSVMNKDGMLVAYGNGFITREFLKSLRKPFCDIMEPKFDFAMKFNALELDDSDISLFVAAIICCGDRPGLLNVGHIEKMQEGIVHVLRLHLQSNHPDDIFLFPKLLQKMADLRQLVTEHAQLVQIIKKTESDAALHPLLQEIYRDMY
PPARa:RXRa, sequence (P19793 whole entry, chain 2 of 2): as the sequence (P19793 whole entry, chain 2 of 2) above

Binder	binding signal
B3	-0.53 PBM z-score against 500 random probes

Biological target: LXRb:RXRa (Homo sapiens, UniProt P55055;P19793 full;full)
Assay: as above
Conditions: tags: His kept;His cleaved; copies: 1;1; label: surface-attached array probe
Method in brief: as §1

LXRb:RXRa, sequence (P55055 whole entry, chain 1 of 2): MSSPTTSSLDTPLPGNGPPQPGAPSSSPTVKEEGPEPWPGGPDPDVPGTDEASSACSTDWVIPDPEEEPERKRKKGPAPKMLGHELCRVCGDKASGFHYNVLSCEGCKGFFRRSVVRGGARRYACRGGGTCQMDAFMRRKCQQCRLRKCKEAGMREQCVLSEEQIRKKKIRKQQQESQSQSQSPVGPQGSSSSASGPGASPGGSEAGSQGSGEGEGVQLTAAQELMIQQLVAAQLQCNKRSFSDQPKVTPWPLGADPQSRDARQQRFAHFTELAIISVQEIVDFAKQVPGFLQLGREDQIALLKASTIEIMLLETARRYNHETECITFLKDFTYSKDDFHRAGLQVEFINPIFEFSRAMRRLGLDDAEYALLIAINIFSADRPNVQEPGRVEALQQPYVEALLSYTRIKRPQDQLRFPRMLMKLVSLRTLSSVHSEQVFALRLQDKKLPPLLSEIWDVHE
LXRb:RXRa, sequence (P19793 whole entry, chain 2 of 2): as the sequence (P19793 whole entry, chain 2 of 2) above

Binder	binding signal
B4	-0.32 PBM z-score against 500 random probes
B1	-1.23 PBM z-score against 500 random probes
B3	-0.83 PBM z-score against 500 random probes
B5	3.26 PBM z-score against 500 random probes
B6	-0.11 PBM z-score against 500 random probes
B2	7.12 PBM z-score against 500 random probes
B7	0.46 PBM z-score against 500 random probes
B8	-0.59 PBM z-score against 500 random probes
B9	0.15 PBM z-score against 500 random probes
B10	-1.05 PBM z-score against 500 random probes

Biological target: LXRa:RXRa (Homo sapiens, UniProt Q13133;P19793 full;full)
Assay: as above
Conditions: tags: His kept;His cleaved; copies: 1;1; label: surface-attached array probe
Method in brief: as §1

LXRa:RXRa, sequence (Q13133 whole entry, chain 1 of 2): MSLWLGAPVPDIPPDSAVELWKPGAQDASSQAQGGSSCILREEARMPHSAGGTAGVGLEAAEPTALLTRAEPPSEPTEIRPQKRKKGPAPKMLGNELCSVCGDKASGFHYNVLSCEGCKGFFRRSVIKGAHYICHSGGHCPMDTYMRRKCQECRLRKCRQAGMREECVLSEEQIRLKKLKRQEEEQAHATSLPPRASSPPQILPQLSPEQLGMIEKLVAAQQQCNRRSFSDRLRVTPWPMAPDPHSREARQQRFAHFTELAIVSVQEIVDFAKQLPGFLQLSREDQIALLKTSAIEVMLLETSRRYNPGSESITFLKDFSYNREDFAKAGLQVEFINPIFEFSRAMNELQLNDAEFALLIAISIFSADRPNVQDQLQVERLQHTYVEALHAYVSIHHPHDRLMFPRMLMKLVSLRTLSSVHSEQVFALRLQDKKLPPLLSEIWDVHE
LXRa:RXRa, sequence (P19793 whole entry, chain 2 of 2): as the sequence (P19793 whole entry, chain 2 of 2) above

Binder	binding signal
B11	6.64 PBM z-score against 500 random probes
B12	6.72 PBM z-score against 500 random probes
B13	6.87 PBM z-score against 500 random probes
B14	7.29 PBM z-score against 500 random probes
B15	7.16 PBM z-score against 500 random probes
B16	7.01 PBM z-score against 500 random probes
B17	8.65 PBM z-score against 500 random probes
B18	6.81 PBM z-score against 500 random probes
B19	6.89 PBM z-score against 500 random probes
B20	6.74 PBM z-score against 500 random probes
B21	8.05 PBM z-score against 500 random probes
B22	6.67 PBM z-score against 500 random probes
B23	7.03 PBM z-score against 500 random probes
B24	7.06 PBM z-score against 500 random probes
B25	8.1 PBM z-score against 500 random probes
B26	7.02 PBM z-score against 500 random probes
B27	7.02 PBM z-score against 500 random probes

Biological target: VDR:RXRa (Homo sapiens, UniProt P11473;P19793 full;full)
Assay: as above
Conditions: tags: His kept;His cleaved; copies: 1;1; label: surface-attached array probe
Method in brief: as §1

VDR:RXRa, sequence (P11473 whole entry, chain 1 of 2): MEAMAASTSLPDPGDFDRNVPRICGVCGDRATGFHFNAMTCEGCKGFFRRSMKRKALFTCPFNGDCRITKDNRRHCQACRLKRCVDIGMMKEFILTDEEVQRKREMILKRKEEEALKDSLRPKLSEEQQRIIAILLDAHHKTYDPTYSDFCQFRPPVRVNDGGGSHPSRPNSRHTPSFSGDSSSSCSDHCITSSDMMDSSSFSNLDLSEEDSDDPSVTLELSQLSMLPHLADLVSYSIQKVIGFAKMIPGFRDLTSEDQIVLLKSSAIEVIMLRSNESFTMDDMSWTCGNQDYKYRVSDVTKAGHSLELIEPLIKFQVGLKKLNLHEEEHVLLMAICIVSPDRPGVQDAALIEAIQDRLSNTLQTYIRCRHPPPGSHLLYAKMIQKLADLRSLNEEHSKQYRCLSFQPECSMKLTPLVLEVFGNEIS
VDR:RXRa, sequence (P19793 whole entry, chain 2 of 2): as the sequence (P19793 whole entry, chain 2 of 2) above

Binder	binding signal
B4	0.03 PBM z-score against 500 random probes
B1	-1.03 PBM z-score against 500 random probes
B3	-0.48 PBM z-score against 500 random probes
B5	3.2 PBM z-score against 500 random probes
B6	0.02 PBM z-score against 500 random probes
B2	7.46 PBM z-score against 500 random probes
B7	0.5 PBM z-score against 500 random probes
B8	-0.23 PBM z-score against 500 random probes
B9	0.11 PBM z-score against 500 random probes
B10	-0.87 PBM z-score against 500 random probes
